Source: patent EP4610277A1 (Daiichi Sankyo Company, Limited, dated 2025)

T1: CD32a (Fc, R&D system 1330-CD-050) (UniProt P12318 36-218)
T1 sequence (looked up): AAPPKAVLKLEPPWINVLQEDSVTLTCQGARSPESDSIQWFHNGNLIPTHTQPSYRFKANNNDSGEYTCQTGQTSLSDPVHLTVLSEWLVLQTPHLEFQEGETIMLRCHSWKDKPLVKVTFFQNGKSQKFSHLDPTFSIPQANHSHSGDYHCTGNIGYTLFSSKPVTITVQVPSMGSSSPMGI

T2: NKp44 (Fc, R&D system 2249-NK-050) (UniProt O95944 22-190, limits assumed)
T2 construct: Bought Fc-tagged protein
T2 sequence (looked up): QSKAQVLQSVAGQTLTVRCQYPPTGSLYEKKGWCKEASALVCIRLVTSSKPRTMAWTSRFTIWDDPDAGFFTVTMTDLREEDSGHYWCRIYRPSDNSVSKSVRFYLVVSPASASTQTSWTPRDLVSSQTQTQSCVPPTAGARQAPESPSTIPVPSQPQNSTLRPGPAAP

T3: TIGIT (Fc, R&D system 9464-TG-050) (UniProt Q495A1 22-141)
T3 construct: Bought Fc-tagged protein
T3 sequence (looked up): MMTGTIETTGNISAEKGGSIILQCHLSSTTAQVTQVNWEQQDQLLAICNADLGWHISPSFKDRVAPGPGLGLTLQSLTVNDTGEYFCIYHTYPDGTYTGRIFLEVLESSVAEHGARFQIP

T4: CD32b/c (Fc, R&D system 1875-CD-050) (UniProt P31994 46-217)
T4 sequence (looked up): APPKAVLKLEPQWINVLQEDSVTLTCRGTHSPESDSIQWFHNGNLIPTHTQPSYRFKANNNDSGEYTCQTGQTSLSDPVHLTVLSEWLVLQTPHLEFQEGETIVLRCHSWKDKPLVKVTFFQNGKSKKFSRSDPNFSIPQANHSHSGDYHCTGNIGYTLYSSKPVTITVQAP

T5: NKG2D (Fc, R&D system 1299-NK-050) (UniProt P26718 78-216)
T5 construct: Bought Fc-tagged protein
T5 sequence (looked up): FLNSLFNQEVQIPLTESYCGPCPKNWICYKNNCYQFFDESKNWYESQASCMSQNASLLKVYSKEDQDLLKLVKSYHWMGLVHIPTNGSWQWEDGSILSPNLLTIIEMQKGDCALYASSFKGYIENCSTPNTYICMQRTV

T6: NKp30 (Fc, R&D system 1849-NK-025) (UniProt O14931 19-138, limits assumed)
T6 construct: Bought Fc-tagged protein
T6 sequence (looked up): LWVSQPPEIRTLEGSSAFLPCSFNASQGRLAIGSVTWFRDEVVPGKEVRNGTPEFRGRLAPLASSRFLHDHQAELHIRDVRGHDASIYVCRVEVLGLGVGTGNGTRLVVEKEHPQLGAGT


Experiments:
[1] = molecular target: T7, recombinant KIR2DL1 (extracellular domain-Fc-Avi, in-house) (human); test: flow cytometry, KIR-Fc 0.1 µM on scFv-K562 cells
T7 construct: IL-2 signal peptide left out; also called soluble KIR2DL1

[2] = molecular target: T8, recombinant KIR2DS2 (extracellular domain-Fc-Avi, in-house) (human); test: flow cytometry, KIR-Fc on scFv-K562 cells
T8 construct: In-house; IL-2 signal peptide left out; also called soluble KIR2DS2

[3] = molecular target: T9, recombinant KIR2DS1 (extracellular domain-Fc-Avi, in-house) (human); test: flow cytometry, KIR-Fc on scFv-K562 cells
T9 construct: In-house; IL-2 signal peptide left out; also called soluble KIR2DS1

[4] = molecular target: T10, recombinant KIR2DS4 (extracellular domain-Fc-Avi, in-house) (human); test: flow cytometry, KIR-Fc on scFv-K562 cells
T10 construct: In-house; IL-2 signal peptide left out; also called soluble KIR2DS4

[5] = molecular target: T11, NKp46 (Fc, R&D system 1850-NK-025) (UniProt O76036 22-258, limits assumed); test: flow cytometry, tagged protein on scFv-K562 cells
T11 construct: Bought Fc-tagged protein

[6] = molecular target: T12, CD161 (Fc, R&D system 7448-CD-050) (UniProt Q12918 67-225); test: flow cytometry, tagged protein on scFv-K562 cells
T12 construct: Bought Fc-tagged protein

[7] = molecular target: T13, NKG2E (Fc, R&D system 9759-NK-050) (UniProt Q07444 94-240, limits assumed); test: flow cytometry, tagged protein on scFv-K562 cells
T13 construct: Bought Fc-tagged protein

[8] = molecular target: T14, KIR3DL3 (Fc, R&D system 10104-KR-050) (UniProt Q8N743 26-322, limits assumed); test: flow cytometry, tagged protein on scFv-K562 cells
T14 construct: Bought Fc-tagged protein

[9] = molecular target: T15, LILRB2 (His, R&D system 8429-T4-050) (UniProt Q8N423 22-458); test: flow cytometry, tagged protein on scFv-K562 cells
T15 construct: Bought His-tagged protein

[10] = molecular target: T1, CD32a (Fc, R&D system 1330-CD-050); test: flow cytometry, tagged protein on scFv-K562 cells
[11] = molecular target: T16, recombinant human KIR3DS1/CD158e2 Fc chimera protein (4136-KR-050, R&D Systems) (human, UniProt Q14943 22-340, limits assumed); test: flow cytometry, tagged protein on scFv-K562 cells
T16 construct: Bought Fc chimera; also called soluble KIR3DS1; recombinant KIR3DS1

[12] = molecular target: T2, NKp44 (Fc, R&D system 2249-NK-050); test: flow cytometry, tagged protein on scFv-K562 cells
[13] = molecular target: T17, NKG2C (Fc, R&D system 138-NK-050) (UniProt P26717 94-231, limits assumed); test: flow cytometry, tagged protein on scFv-K562 cells
T17 construct: Bought Fc-tagged protein

[14] = molecular target: T3, TIGIT (Fc, R&D system 9464-TG-050); test: flow cytometry, tagged protein on scFv-K562 cells
[15] = molecular target: T18, KIR2DL5 (Fc, R&D system 6634-KR-050) (UniProt Q8N109 22-238, limits assumed); test: flow cytometry, tagged protein on scFv-K562 cells
T18 construct: Bought Fc-tagged protein

[16] = molecular target: T4, CD32b/c (Fc, R&D system 1875-CD-050); test: flow cytometry, tagged protein on scFv-K562 cells
[17] = molecular target: CD64 (Fc, R&D system 1257-FC-050) (UniProt P12314 16-288); test: flow cytometry, tagged protein on scFv-K562 cells
[18] = molecular target: CD16a (Fc, R&D system 4325-FC-050) (UniProt P08637 17-208); test: flow cytometry, tagged protein on scFv-K562 cells
[19] = molecular target: T5, NKG2D (Fc, R&D system 1299-NK-050); test: flow cytometry, tagged protein on scFv-K562 cells
[20] = molecular target: T19, KIR2DL4 (Fc, R&D system 2238-KR-050) (UniProt Q99706 24-242, limits assumed); test: flow cytometry, tagged protein on scFv-K562 cells
T19 construct: Bought Fc-tagged protein

[21] = molecular target: KIR2DS3 (Fc, prepared in-house) (UniProt Q14952 22-245, limits assumed); test: flow cytometry, tagged protein on scFv-K562 cells
[22] = molecular target: T6, NKp30 (Fc, R&D system 1849-NK-025); test: flow cytometry, tagged protein on scFv-K562 cells
[23] = molecular target: T20, LILRB1 (Fc, R&D system 2017-T2-050) (UniProt Q8NHL6 24-458); test: flow cytometry, tagged protein on scFv-K562 cells
T20 construct: Bought Fc-tagged protein

[24] = molecular target: T21, KIR3DL1 (Fc, R&D system 1225-KR-050) (UniProt P43629 22-340); test: flow cytometry, tagged protein on scFv-K562 cells
T21 construct: Bought Fc-tagged protein

[25] = molecular target: CD16b (Fc, R&D system 1597-FC-050) (UniProt O75015 17-200, limits assumed); test: flow cytometry, tagged protein on scFv-K562 cells
[26] = molecular target: T22, NKG2A (Fc, R&D system 10511-NK-050) (UniProt P26715 94-233, limits assumed); test: flow cytometry, tagged protein on scFv-K562 cells
T22 construct: Bought Fc-tagged protein

[27] = molecular target: T23, KIR2DL1 (Fc, R&D system 1844-KR-050) (UniProt P43626 22-245); test: flow cytometry, tagged protein on scFv-K562 cells
T23 construct: Bought Fc-tagged protein
T23 sequence (P43626 22-245 limits assumed): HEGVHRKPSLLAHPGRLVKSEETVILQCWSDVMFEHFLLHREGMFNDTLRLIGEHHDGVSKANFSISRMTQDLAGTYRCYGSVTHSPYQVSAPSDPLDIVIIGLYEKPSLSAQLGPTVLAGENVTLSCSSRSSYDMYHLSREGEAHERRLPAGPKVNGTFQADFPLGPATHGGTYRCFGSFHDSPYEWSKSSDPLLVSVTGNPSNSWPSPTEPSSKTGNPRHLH

T16 sequence (Q14943 22-340 limits assumed, change not shown): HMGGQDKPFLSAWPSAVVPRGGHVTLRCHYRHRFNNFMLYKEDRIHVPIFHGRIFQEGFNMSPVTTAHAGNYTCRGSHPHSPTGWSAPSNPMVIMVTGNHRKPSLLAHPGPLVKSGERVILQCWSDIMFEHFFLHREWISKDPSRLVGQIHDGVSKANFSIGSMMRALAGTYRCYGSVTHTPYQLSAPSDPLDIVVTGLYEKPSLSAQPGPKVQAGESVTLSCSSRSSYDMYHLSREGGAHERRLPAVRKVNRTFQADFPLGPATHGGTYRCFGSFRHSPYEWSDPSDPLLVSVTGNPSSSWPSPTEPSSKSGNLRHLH
Chain of CD16a (Fc, R&D system 4325-FC-050) (P08637 17-208 limits assumed): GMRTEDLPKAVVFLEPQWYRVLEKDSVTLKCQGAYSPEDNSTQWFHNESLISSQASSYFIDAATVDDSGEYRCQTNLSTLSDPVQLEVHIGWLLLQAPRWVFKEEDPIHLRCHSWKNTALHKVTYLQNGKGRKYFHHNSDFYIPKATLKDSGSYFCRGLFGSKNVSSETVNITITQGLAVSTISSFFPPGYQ
T19 sequence (Q99706 24-242 limits assumed): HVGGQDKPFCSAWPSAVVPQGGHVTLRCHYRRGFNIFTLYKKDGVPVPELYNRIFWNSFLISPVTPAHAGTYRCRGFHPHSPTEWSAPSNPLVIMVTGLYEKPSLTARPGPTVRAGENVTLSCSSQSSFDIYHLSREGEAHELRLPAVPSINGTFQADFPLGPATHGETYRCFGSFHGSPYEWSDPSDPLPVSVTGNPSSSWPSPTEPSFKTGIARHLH
T13 sequence (Q07444 94-240 limits assumed): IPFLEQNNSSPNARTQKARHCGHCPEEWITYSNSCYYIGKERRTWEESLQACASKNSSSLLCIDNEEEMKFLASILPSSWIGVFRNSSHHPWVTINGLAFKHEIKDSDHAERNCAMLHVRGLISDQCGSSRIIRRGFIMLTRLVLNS
T10 sequence (chain, as listed by the source): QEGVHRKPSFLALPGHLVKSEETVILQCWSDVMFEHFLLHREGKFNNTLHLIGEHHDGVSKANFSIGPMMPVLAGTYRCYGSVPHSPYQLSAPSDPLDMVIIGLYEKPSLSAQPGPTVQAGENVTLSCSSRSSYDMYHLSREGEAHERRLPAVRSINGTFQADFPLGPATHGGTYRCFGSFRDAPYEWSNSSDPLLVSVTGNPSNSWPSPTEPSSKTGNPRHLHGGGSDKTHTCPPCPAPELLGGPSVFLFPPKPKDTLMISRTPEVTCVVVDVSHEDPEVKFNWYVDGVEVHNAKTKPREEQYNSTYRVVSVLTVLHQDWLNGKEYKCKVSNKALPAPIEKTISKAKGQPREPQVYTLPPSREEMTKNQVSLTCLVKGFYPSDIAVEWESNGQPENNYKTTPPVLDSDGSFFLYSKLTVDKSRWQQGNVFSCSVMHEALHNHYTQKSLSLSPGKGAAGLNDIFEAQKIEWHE
Chain of CD16b (Fc, R&D system 1597-FC-050) (O75015 17-200 limits assumed): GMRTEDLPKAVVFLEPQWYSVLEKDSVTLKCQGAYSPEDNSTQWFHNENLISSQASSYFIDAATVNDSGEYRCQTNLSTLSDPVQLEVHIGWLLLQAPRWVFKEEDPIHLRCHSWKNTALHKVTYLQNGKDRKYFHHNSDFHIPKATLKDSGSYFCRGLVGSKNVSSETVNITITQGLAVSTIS
T17 sequence (P26717 94-231 limits assumed): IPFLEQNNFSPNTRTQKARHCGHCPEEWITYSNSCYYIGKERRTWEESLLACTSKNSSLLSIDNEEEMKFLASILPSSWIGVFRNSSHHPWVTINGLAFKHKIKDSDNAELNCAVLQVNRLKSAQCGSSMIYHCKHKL
Chain of CD64 (Fc, R&D system 1257-FC-050) (P12314 16-288 limits assumed): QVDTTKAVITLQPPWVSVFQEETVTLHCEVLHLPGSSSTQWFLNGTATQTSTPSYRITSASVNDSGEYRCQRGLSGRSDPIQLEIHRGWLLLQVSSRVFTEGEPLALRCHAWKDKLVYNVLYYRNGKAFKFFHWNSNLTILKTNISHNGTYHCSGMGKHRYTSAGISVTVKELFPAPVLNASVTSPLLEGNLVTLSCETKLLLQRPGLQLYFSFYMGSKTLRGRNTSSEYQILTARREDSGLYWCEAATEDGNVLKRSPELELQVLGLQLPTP
T21 sequence (P43629 22-340 limits assumed): as the sequence (Q14943 22-340 limits assumed, change not shown) above, with V47I, G58S, M92V, R136K, W138G, S163P, R166L, L199P, L315P counted along it
T7 sequence (chain, as listed by the source): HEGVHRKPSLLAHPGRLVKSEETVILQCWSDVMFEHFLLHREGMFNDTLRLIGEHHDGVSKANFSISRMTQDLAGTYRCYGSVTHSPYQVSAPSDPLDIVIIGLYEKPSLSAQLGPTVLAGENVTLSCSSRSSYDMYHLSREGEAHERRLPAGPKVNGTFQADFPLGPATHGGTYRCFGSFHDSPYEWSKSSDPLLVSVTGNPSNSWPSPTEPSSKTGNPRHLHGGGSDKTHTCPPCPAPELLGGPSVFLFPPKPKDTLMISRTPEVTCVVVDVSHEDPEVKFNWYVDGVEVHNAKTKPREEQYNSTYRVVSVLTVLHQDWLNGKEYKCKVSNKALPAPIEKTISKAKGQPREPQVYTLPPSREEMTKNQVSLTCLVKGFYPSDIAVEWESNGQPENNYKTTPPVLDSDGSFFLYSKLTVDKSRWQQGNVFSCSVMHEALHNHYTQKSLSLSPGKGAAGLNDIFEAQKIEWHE
T22 sequence (P26715 94-233 limits assumed): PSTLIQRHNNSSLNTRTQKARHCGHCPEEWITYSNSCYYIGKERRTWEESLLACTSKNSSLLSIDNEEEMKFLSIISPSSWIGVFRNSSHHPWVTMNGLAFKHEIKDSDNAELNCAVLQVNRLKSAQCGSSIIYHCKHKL
T20 sequence (Q8NHL6 24-458 limits assumed): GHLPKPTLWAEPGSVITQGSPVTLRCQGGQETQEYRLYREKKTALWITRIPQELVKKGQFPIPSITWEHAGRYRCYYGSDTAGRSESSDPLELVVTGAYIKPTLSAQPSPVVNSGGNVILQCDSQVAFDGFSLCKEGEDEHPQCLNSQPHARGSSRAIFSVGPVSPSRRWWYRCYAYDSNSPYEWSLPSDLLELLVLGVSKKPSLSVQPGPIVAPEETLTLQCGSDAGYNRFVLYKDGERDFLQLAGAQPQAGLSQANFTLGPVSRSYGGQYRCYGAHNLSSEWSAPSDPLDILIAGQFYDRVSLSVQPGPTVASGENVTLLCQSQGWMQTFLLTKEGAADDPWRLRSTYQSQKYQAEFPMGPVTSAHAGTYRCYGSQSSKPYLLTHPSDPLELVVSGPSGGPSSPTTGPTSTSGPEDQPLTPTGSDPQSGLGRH
T15 sequence (Q8N423 22-458 limits assumed): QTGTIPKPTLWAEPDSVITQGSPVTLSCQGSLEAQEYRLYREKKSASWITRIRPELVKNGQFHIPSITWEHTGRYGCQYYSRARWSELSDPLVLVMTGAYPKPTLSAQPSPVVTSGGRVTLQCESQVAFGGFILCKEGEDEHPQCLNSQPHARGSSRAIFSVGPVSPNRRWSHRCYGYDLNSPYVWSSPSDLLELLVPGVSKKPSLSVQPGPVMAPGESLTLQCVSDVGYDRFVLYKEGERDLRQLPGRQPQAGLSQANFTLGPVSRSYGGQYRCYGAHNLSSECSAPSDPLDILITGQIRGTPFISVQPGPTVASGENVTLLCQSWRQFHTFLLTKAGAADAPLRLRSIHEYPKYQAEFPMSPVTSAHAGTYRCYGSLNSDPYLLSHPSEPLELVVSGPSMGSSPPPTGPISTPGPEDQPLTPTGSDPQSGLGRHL
T14 sequence (Q8N743 26-322 limits assumed): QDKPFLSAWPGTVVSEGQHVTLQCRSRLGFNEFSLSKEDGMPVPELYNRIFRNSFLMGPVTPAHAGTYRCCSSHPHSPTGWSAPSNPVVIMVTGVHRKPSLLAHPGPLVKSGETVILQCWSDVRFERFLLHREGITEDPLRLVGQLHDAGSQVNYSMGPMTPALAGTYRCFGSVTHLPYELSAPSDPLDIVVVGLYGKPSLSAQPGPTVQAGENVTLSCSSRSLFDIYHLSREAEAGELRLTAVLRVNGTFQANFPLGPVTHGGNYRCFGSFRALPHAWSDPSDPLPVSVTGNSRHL
T18 sequence (Q8N109 22-238 limits assumed): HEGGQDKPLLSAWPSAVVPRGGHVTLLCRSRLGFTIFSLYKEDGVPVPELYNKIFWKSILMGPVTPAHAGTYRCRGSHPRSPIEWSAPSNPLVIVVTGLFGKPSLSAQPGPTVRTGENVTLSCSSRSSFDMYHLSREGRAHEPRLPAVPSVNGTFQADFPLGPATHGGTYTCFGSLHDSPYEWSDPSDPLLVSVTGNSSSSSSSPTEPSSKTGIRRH
Chain of KIR2DS3 (Fc, prepared in-house) (Q14952 22-245 limits assumed): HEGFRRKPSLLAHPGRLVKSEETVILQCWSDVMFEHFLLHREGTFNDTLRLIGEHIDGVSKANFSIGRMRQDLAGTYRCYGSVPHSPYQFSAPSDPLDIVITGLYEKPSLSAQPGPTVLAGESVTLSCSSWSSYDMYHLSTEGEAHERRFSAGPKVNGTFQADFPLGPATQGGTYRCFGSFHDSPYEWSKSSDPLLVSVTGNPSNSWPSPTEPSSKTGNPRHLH

Binder | binding result [1] | binding result [2] | binding result [3] | binding result [4] | binding result [5] | binding result [6] | binding result [7] | binding result [8] | binding result [9] | binding result [10] | binding result [11] | binding result [12] | binding result [13] | binding result [14] | binding result [15] | binding result [16] | binding result [17] | binding result [18] | binding result [19] | binding result [20] | also measured
membrane-type a2DL1-DS1 scFv (scFv, On K562 cells) scFv: DYKDDDDKGSGQVQLQQSGPELVRASQTLSLTCAISGDSVSSNSATWNWIRQSPSRGLEWLGRTYYRSKWYNDYAVSVKSRITINPDTSKNQFSLQLNSVTPEDTAVYYCARDSPSYGRGVFDIWGQGTLVTVSSGGGGSGGGGSGGGGSDIVMTQSPDSLAVSLGERATINCKSSQSVLYSSNNKNYLAWYQQKPGQPPKLLIYWASTRESGVPDRFSGSGSGTDFTLTISSLQAEDVAVYYCQQYYSPPYTFGQGTKLEIKALSNSIMYFSHFVPVFLPAKPTTTPAPRPPTPAPTIASQPLSLRPEACRPAAGGAVHTRGLDFACDIYIWAPLAGTCGVLLLSLVITLYCNH | binds | – | – | – | – | – | – | – | – | – | – | – | – | – | – | – | – | – | – | – | –
membrane-type a2DL1-DS11 scFv (scFv, On K562 cells) scFv: DYKDDDDKGSGEVQLVQSGAEVKKPGSSVKVSCKASGGTFSSYAISWVRQAPGQGLEWMGGIIPIFGTANYAQKFQGRVTITADESTSTAYMELSSLRSEDTAVYYCARGLRFFDYWGQGTLVTVSSGGGGSGGGGSGGGGSQSVLTQPPSASGTPGQRVTISCSGSSSNIGTNTVNWYQQFPGTAPKLLIYSNNQRPSGVPDRFSGSKSGTSGSLAISGLQSEDEADYYCAAWDDSLQGWLFGGGTKLTVLALSNSIMYFSHFVPVFLPAKPTTTPAPRPPTPAPTIASQPLSLRPEACRPAAGGAVHTRGLDFACDIYIWAPLAGTCGVLLLSLVITLYCNH | binds | – | – | – | – | – | – | – | – | – | – | – | – | – | – | – | – | – | – | – | –
membrane-type a2DL2/3-DS4 scFv (scFv, On K562 cells) scFv: DYKDDDDKGSGEVQLVQSGAEVKKPGSSVKVSCKASGGTFSSYAISWVRQAPGQGLEWMGGIIPIFGTANYAQKFQDRVTITADKSTSTAYMELSSLRSEDTAVYYCARGSRNFDYWGQGTLVTVSSGGGGSGGGGSGGGGSAIRMTQSPSSLSASVGDRVTIPCRASQSIGSYLNWYQQKPGKAPNLLIYAASSLQSGVPSRFSGSGSGTDFTLTISSLQPEDFATYYCQQSYSTPLTFGGGTKVDIKALSNSIMYFSHFVPVFLPAKPTTTPAPRPPTPAPTIASQPLSLRPEACRPAAGGAVHTRGLDFACDIYIWAPLAGTCGVLLLSLVITLYCNH | – | no binding (tested: 0.1 µM) | no binding (tested: 0.1 µM) | no binding (tested: 0.1 µM) | no binding (tested: 0.1 µM) | no binding (tested: 0.1 µM) | no binding (tested: 0.1 µM) | no binding (tested: 0.1 µM) | no binding (tested: 0.1 µM) | no binding (tested: 0.1 µM) | no binding (tested: 0.1 µM) | no binding (tested: 0.1 µM) | no binding (tested: 0.1 µM) | no binding (tested: 0.1 µM) | no binding (tested: 0.1 µM) | no binding (tested: 0.1 µM) | no binding (tested: 0.1 µM) | no binding (tested: 0.1 µM) | no binding (tested: 0.1 µM) | no binding (tested: 0.1 µM) | binding result [21]: no binding (tested: 0.1 µM); binding result [22]: no binding (tested: 0.1 µM); binding result [23]: no binding (tested: 0.1 µM); binding result [24]: no binding (tested: 0.1 µM); binding result [25]: no binding (tested: 0.1 µM); binding result [26]: no binding (tested: 0.1 µM); binding result [27]: no binding (tested: 0.1 µM)
membrane-type a2DL2/3-DS10 scFv (scFv, On K562 cells; also called a2DL2/3-DS10 WT scFv) scFv: DYKDDDDKGSGQVQLVQSGAEVKKPGSSVKVSCKASGGTFSSFAISWVRQAPGQGLEWMGGIIPIFGTANYAQKFQGRVTITADESTSTAYMELSSLRSEDTAVYYCARVSGTTGGYYYGMDVWGQGTLVTVSSGGGGSGGGGSGGGGSAIRMTQSPSSVSASVGDRVTITCRASQGIGNWLAWYQQKPGRAPKLLISTASSLQSGVPSRFSGGGSGRGFTLTISSLQLEDFATYYCQQSYITPWTFGQGTKVEIKALSNSIMYFSHFVPVFLPAKPTTTPAPRPPTPAPTIASQPLSLRPEACRPAAGGAVHTRGLDFACDIYIWAPLAGTCGVLLLSLVITLYCNH | – | no binding (tested: 0.1 µM) | no binding (tested: 0.1 µM) | no binding (tested: 0.1 µM) | no binding (tested: 0.1 µM) | no binding (tested: 0.1 µM) | no binding (tested: 0.1 µM) | no binding (tested: 0.1 µM) | no binding (tested: 0.1 µM) | no binding (tested: 0.1 µM) | no binding (tested: 0.1 µM) | no binding (tested: 0.1 µM) | no binding (tested: 0.1 µM) | no binding (tested: 0.1 µM) | no binding (tested: 0.1 µM) | no binding (tested: 0.1 µM) | no binding (tested: 0.1 µM) | no binding (tested: 0.1 µM) | no binding (tested: 0.1 µM) | no binding (tested: 0.1 µM) | binding result [21]: no binding (tested: 0.1 µM); binding result [22]: no binding (tested: 0.1 µM); binding result [23]: no binding (tested: 0.1 µM); binding result [24]: no binding (tested: 0.1 µM); binding result [25]: no binding (tested: 0.1 µM); binding result [26]: no binding (tested: 0.1 µM); binding result [27]: no binding (tested: 0.1 µM)
